# Test results reported in ChEMBL document CHEMBL1138864, “Synthesis of novel caspase inhibitors for characterization of the active caspase proteome in vitro and in vivo” (J Med Chem, 2006).
# What was measured:
# Conditions in all cases: Homo sapiens
# [1] = substrate: Cc1cccc(C)c1C(=O)OCC(=O)[C@H](CC(=O)O)NC(=O)[C@H](CCCCNC(=O)CCCCCNC(=O)CCCCC1SC[C@@H]2NC(=O)N[C@H]12)NC(=O)[C@H](CCC(=O)O)NC(=O)OCc1ccccc1
# Description: Inhibition of human caspase 1
# [2] = substrate: Cc1cccc(C)c1C(=O)OCC(=O)[C@H](CC(=O)O)NC(=O)[C@H](CCCCNC(=O)CCCCCNC(=O)CCCCC1SC[C@@H]2NC(=O)N[C@H]12)NC(=O)[C@H](CCC(=O)O)NC(=O)OCc1ccccc1; remark: listed apart in the source
# Description: Inhibition of human caspase 2
# [3] = substrate: Cc1cccc(C)c1C(=O)OCC(=O)[C@H](CC(=O)O)NC(=O)[C@H](CCCCNC(=O)CCCCCNC(=O)CCCCC1SC[C@@H]2NC(=O)N[C@H]12)NC(=O)[C@H](CCC(=O)O)NC(=O)OCc1ccccc1; remark: listed apart in the source
# Description: Inhibition of human caspase 3
# [4] = substrate: Cc1cccc(C)c1C(=O)OCC(=O)[C@H](CC(=O)O)NC(=O)[C@H](CCCCNC(=O)CCCCCNC(=O)CCCCC1SC[C@@H]2NC(=O)N[C@H]12)NC(=O)[C@H](CCC(=O)O)NC(=O)OCc1ccccc1; remark: listed apart in the source
# Description: Inhibition of human caspase 4
# [5] = substrate: Cc1cccc(C)c1C(=O)OCC(=O)[C@H](CC(=O)O)NC(=O)[C@H](CCCCNC(=O)CCCCCNC(=O)CCCCC1SC[C@@H]2NC(=O)N[C@H]12)NC(=O)[C@H](CCC(=O)O)NC(=O)OCc1ccccc1; remark: listed apart in the source
# Description: Inhibition of human caspase 5
# [6] = substrate: Cc1cccc(C)c1C(=O)OCC(=O)[C@H](CC(=O)O)NC(=O)[C@H](CCCCNC(=O)CCCCCNC(=O)CCCCC1SC[C@@H]2NC(=O)N[C@H]12)NC(=O)[C@H](CCC(=O)O)NC(=O)OCc1ccccc1; remark: listed apart in the source
# Description: Inhibition of human caspase 6
# [7] = substrate: Cc1cccc(C)c1C(=O)OCC(=O)[C@H](CC(=O)O)NC(=O)[C@H](CCCCNC(=O)CCCCCNC(=O)CCCCC1SC[C@@H]2NC(=O)N[C@H]12)NC(=O)[C@H](CCC(=O)O)NC(=O)OCc1ccccc1; remark: listed apart in the source
# Description: Inhibition of human caspase 7
# [8] = substrate: Cc1cccc(C)c1C(=O)OCC(=O)[C@H](CC(=O)O)NC(=O)[C@H](CCCCNC(=O)CCCCCNC(=O)CCCCC1SC[C@@H]2NC(=O)N[C@H]12)NC(=O)[C@H](CCC(=O)O)NC(=O)OCc1ccccc1; remark: listed apart in the source
# Description: Inhibition of human caspase 8
protein,measurement,setting,value
"Caspase-1 (Homo sapiens), P29466 (protein) MADKVLKEKRKLFIRSMGEGTINGLLDELLQTRVLNKEEMEKVKRENATVMDKTRALIDSVIPKGAQACQICITYICEEDSYLAGTLGLSADQTSGNYLNMQDSQGVLSSFPAPQAVQDNPAMPTSSGSEGNVKLCSLEEAQRIWKQKSAEIYPIMDKSSRTRLALIICNEEFDSIPRRTGAEVDITGMTMLLQNLGYSVDVKKNLTASDMTTELEAFAHRPEHKTSDSTFLVFMSHGIREGICGKKHSEQVPDILQLNAIFNMLNTKNCPSLKDKPKVIIIQACRGDSPGVVWFKDSVGVSGNLSLPTTEEFEDDAIKKAHIEKDFIAFCSSTPDNVSWRHPTMGSVFIGRLIEHMQEYACSCDVEEIFRKVRFSFEQPDGRAQMPTTERVTLTRCFYLFPGH",Km,[1],100 µM
"Caspase-2 (Homo sapiens), P42575 (protein) MAAPSAGSWSTFQHKELMAADRGRRILGVCGMHPHHQETLKKNRVVLAKQLLLSELLEHLLEKDIITLEMRELIQAKVGSFSQNVELLNLLPKRGPQAFDAFCEALRETKQGHLEDMLLTTLSGLQHVLPPLSCDYDLSLPFPVCESCPLYKKLRLSTDTVEHSLDNKDGPVCLQVKPCTPEFYQTHFQLAYRLQSRPRGLALVLSNVHFTGEKELEFRSGGDVDHSTLVTLFKLLGYDVHVLCDQTAQEMQEKLQNFAQLPAHRVTDSCIVALLSHGVEGAIYGVDGKLLQLQEVFQLFDNANCPSLQNKPKMFFIQACRGDETDRGVDQQDGKNHAGSPGCEESDAGKEKLPKMRLPTRSDMICGYACLKGTAAMRNTKRGSWYIEALAQVFSERACDMHVADMLVKVNALIKDREGYAPGTEFHRCKEMSEYCSTLCRHLYLFPGHPPT",Km,[2],560 µM
"Caspase-3 (Homo sapiens), P42574 (protein) MENTENSVDSKSIKNLEPKIIHGSESMDSGISLDNSYKMDYPEMGLCIIINNKNFHKSTGMTSRSGTDVDAANLRETFRNLKYEVRNKNDLTREEIVELMRDVSKEDHSKRSSFVCVLLSHGEEGIIFGTNGPVDLKKITNFFRGDRCRSLTGKPKLFIIQACRGTELDCGIETDSGVDDDMACHKIPVEADFLYAYSTAPGYYSWRNSKDGSWFIQSLCAMLKQYADKLEFMHILTRVNRKVATEFESFSFDATFHAKKQIPCIVSMLTKELYFYH",Km,[3],74 µM
"Caspase-4 (Homo sapiens), P49662 (protein) MAEGNHRKKPLKVLESLGKDFLTGVLDNLVEQNVLNWKEEEKKKYYDAKTEDKVRVMADSMQEKQRMAGQMLLQTFFNIDQISPNKKAHPNMEAGPPESGESTDALKLCPHEEFLRLCKERAEEIYPIKERNNRTRLALIICNTEFDHLPPRNGADFDITGMKELLEGLDYSVDVEENLTARDMESALRAFATRPEHKSSDSTFLVLMSHGILEGICGTVHDEKKPDVLLYDTIFQIFNNRNCLSLKDKPKVIIVQACRGANRGELWVRDSPASLEVASSQSSENLEEDAVYKTHVEKDFIAFCSSTPHNVSWRDSTMGSIFITQLITCFQKYSWCCHLEEVFRKVQQSFETPRAKAQMPTIERLSMTRYFYLFPGN",Km,[4],1100 µM
"Caspase-5 (Homo sapiens), P51878 (protein) MAEDSGKKKRRKNFEAMFKGILQSGLDNFVINHMLKNNVAGQTSIQTLVPNTDQKSTSVKKDNHKKKTVKMLEYLGKDVLHGVFNYLAKHDVLTLKEEEKKKYYDTKIEDKALILVDSLRKNRVAHQMFTQTLLNMDQKITSVKPLLQIEAGPPESAESTNILKLCPREEFLRLCKKNHDEIYPIKKREDRRRLALIICNTKFDHLPARNGAHYDIVGMKRLLQGLGYTVVDEKNLTARDMESVLRAFAARPEHKSSDSTFLVLMSHGILEGICGTAHKKKKPDVLLYDTIFQIFNNRNCLSLKDKPKVIIVQACRGEKHGELWVRDSPASLALISSQSSENLEADSVCKIHEEKDFIAFCSSTPHNVSWRDRTRGSIFITELITCFQKYSCCCHLMEIFRKVQKSFEVPQAKAQMPTIERATLTRDFYLFPGN",Km,[5],2500 µM
"Caspase-6 (Homo sapiens), P55212 (protein) MSSASGLRRGHPAGGEENMTETDAFYKREMFDPAEKYKMDHRRRGIALIFNHERFFWHLTLPERRGTCADRDNLTRRFSDLGFEVKCFNDLKAEELLLKIHEVSTVSHADADCFVCVFLSHGEGNHIYAYDAKIEIQTLTGLFKGDKCHSLVGKPKIFIIQACRGNQHDVPVIPLDVVDNQTEKLDTNITEVDAASVYTLPAGADFLMCYSVAEGYYSHRETVNGSWYIQDLCEMLGKYGSSLEFTELLTLVNRKVSQRRVDFCKDPSAIGKKQVPCFASMLTKKLHFFPKSN",Km,[6],220 µM
"Caspase-7 (Homo sapiens), P55210 (protein) MADDQGCIEEQGVEDSANEDSVDAKPDRSSFVPSLFSKKKKNVTMRSIKTTRDRVPTYQYNMNFEKLGKCIIINNKNFDKVTGMGVRNGTDKDAEALFKCFRSLGFDVIVYNDCSCAKMQDLLKKASEEDHTNAACFACILLSHGEENVIYGKDGVTPIKDLTAHFRGDRCKTLLEKPKLFFIQACRGTELDDGIQADSGPINDTDANPRYKIPVEADFLFAYSTVPGYYSWRSPGRGSWFVQALCSILEEHGKDLEIMQILTRVNDRVARHFESQSDDPHFHEKKQIPCVVSMLTKELYFSQ",Km,[7],230 µM
"Caspase-8 (Homo sapiens), Q14790 (protein) MDFSRNLYDIGEQLDSEDLASLKFLSLDYIPQRKQEPIKDALMLFQRLQEKRMLEESNLSFLKELLFRINRLDLLITYLNTRKEEMERELQTPGRAQISAYRVMLYQISEEVSRSELRSFKFLLQEEISKCKLDDDMNLLDIFIEMEKRVILGEGKLDILKRVCAQINKSLLKIINDYEEFSKERSSSLEGSPDEFSNGEELCGVMTISDSPREQDSESQTLDKVYQMKSKPRGYCLIINNHNFAKAREKVPKLHSIRDRNGTHLDAGALTTTFEELHFEIKPHDDCTVEQIYEILKIYQLMDHSNMDCFICCILSHGDKGIIYGTDGQEAPIYELTSQFTGLKCPSLAGKPKVFFIQACQGDNYQKGIPVETDSEEQPYLEMDLSSPQTRYIPDEADFLLGMATVNNCVSYRNPAEGTWYIQSLCQSLRERCPRGDDILTILTEVNYEVSNKDDKKNMGKQMPQPTFTLRKKLVFPSD",Km,[8],140 µM
